This is an account of results in US20220064329A1 (Novo Nordisk, published 2022).

B1: VH SEQ ID NO 546 / VL SEQ ID NO 334 (antibody, IgG4, V domains shown)
VH: QVQLQESGPGLVEPSQTLSLTCTVSGYSITSDSAWSWIRQPPGKKLEWIGYIQYSGSTNYNPSLKSRVTISRDTSKNQFSLKLSSVTAADTAVYYCARSVNYYGNSFAVGYWGQGTSVTVSS
VL: EIVLTQSPATLSLSPGERATLSCRASQGISDYLHWYQQKPGQAPRLLIKYASQPATGIPARFSGSGSGTDFTLTISSLEPEDFAVYYCQNGHSFPLTFGQGTKLEIK
notes: humanized 11F2; IgG4 S228P/kappa
B2: VH SEQ ID NO 546 / VL SEQ ID NO 438 (antibody, IgG4, V domains shown)
VH: B1 VH
VL: B1 VL with I29V, H34A, F83V
notes: as for B1
B3: VH SEQ ID NO 546 / VL SEQ ID NO 342 (antibody, IgG4, V domains shown)
VH: B1 VH
VL: B1 VL with A51T, T69R, Q100A, I106L
notes: as for B1
B4: VH SEQ ID NO 546 / VL SEQ ID NO 350 (antibody, IgG4, V domains shown)
VH: B1 VH
VL: B1 VL with A51T, Q100A, I106L
notes: as for B1
B5: VH SEQ ID NO 554 / VL SEQ ID NO 358 (antibody, IgG4, V domains shown)
VH: QVQLQESGPGLVKPSDTLSLTCAVSGYSISSDSAWSWIRQFPGKGLEWIGYIQYSGSTNYNPSLKSRVTMSVDTSKNQFSLKLSSVTALDTAVYYCARSVNYYGNSFAVGPWGQGTLVTVSS
VL: B1 VL with A51T
notes: as for B1
B6: VH SEQ ID NO 546 / VL SEQ ID NO 422 (antibody, IgG4, V domains shown)
VH: B1 VH
VL: B1 VL with I29V, H34A, N90Q
notes: as for B1
B7: VH SEQ ID NO 546 / VL SEQ ID NO 374 (antibody, IgG4, V domains shown)
VH: B1 VH
VL: B1 VL with I29L, H34A, A51T
notes: as for B1
B8: VH SEQ ID NO 554 / VL SEQ ID NO 462 (antibody, IgG4, V domains shown)
VH: B5 VH
VL: B1 VL with I29V, Q100A
notes: as for B1
B9: VH SEQ ID NO 554 / VL SEQ ID NO 382 (antibody, IgG4, V domains shown)
VH: B5 VH
VL: B1 VL with I29L, Q42E
notes: as for B1
B10: VH SEQ ID NO 554 / VL SEQ ID NO 342 (antibody, IgG4, V domains shown)
VH: B5 VH
VL: B1 VL with A51T, T69R, Q100A, I106L
notes: as for B1
B11: VH SEQ ID NO 546 / VL SEQ ID NO 366 (antibody, IgG4, V domains shown)
VH: B1 VH
VL: B1 VL with I29L, H34A, Q42E
notes: as for B1
B12: VH SEQ ID NO 546 / VL SEQ ID NO 446 (antibody, IgG4, V domains shown)
VH: B1 VH
VL: B1 VL with I29V, H34A, A51T
notes: as for B1
B13: VH SEQ ID NO 546 / VL SEQ ID NO 470 (antibody, IgG4, V domains shown)
VH: B1 VH
VL: B1 VL with I29V
notes: as for B1
B14: VH SEQ ID NO 546 / VL SEQ ID NO 430 (antibody, IgG4, V domains shown)
VH: B1 VH
VL: B1 VL with I29V, H34A, A84G
notes: as for B1
B15: VH SEQ ID NO 554 / VL SEQ ID NO 326 (antibody, IgG4, V domains shown)
VH: B5 VH
VL: B1 VL with Q42E, A51T, A84G, Q100A, I106L
notes: as for B1
B16: VH SEQ ID NO 546 / VL SEQ ID NO 406 (antibody, IgG4, V domains shown)
VH: B1 VH
VL: B1 VL with I29V, H34A, Q100A
notes: as for B1
B17: VH SEQ ID NO 546 / VL SEQ ID NO 462 (antibody, IgG4, V domains shown)
VH: B1 VH
VL: B1 VL with I29V, Q100A
notes: as for B1
B18: VH SEQ ID NO 546 / VL SEQ ID NO 502 (antibody, IgG4, V domains shown)
VH: B1 VH
VL: B1 VL with I29V, A51T
notes: as for B1
B19: VH SEQ ID NO 554 / VL SEQ ID NO 318 (antibody, IgG4, V domains shown)
VH: B5 VH
VL: B1 VL with Q42E, A51T
notes: as for B1
B20: VH SEQ ID NO 546 / VL SEQ ID NO 358 (antibody, IgG4, V domains shown)
VH: B1 VH
VL: B1 VL with A51T
notes: as for B1
B21: VH SEQ ID NO 554 / VL SEQ ID NO 454 (antibody, IgG4, V domains shown)
VH: B5 VH
VL: B1 VL with I29V, Q42E
notes: as for B1
B22: VH SEQ ID NO 546 / VL SEQ ID NO 478 (antibody, IgG4, V domains shown)
VH: B1 VH
VL: B1 VL with I29V, N90Q
notes: as for B1
B23: VH SEQ ID NO 546 / VL SEQ ID NO 398 (antibody, IgG4, V domains shown)
VH: B1 VH
VL: B1 VL with I29V, H34A, Q42E, A51T
notes: as for B1
B24: VH SEQ ID NO 554 / VL SEQ ID NO 470 (antibody, IgG4, V domains shown)
VH: B5 VH
VL: B1 VL with I29V
notes: as for B1
B25: VH SEQ ID NO 554 / VL SEQ ID NO 334 (antibody, IgG4, V domains shown)
VH: B5 VH
VL: B1 VL
notes: as for B1
B26: VH SEQ ID NO 546 / VL SEQ ID NO 494 (antibody, IgG4, V domains shown)
VH: B1 VH
VL: B1 VL with I29V, F83V
notes: as for B1
B27: VH SEQ ID NO 546 / VL SEQ ID NO 382 (antibody, IgG4, V domains shown)
VH: B1 VH
VL: B1 VL with I29L, Q42E
notes: as for B1
B28: VH SEQ ID NO 546 / VL SEQ ID NO 414 (antibody, IgG4, V domains shown)
VH: B1 VH
VL: B1 VL with I29V, H34A
notes: as for B1
B29: VH SEQ ID NO 546 / VL SEQ ID NO 454 (antibody, IgG4, V domains shown)
VH: B1 VH
VL: B1 VL with I29V, Q42E
notes: as for B1
B30: VH SEQ ID NO 546 / VL SEQ ID NO 486 (antibody, IgG4, V domains shown)
VH: B1 VH
VL: B1 VL with I29V, A84G
notes: as for B1
B31: VH SEQ ID NO 554 / VL SEQ ID NO 350 (antibody, IgG4, V domains shown)
VH: B5 VH
VL: B1 VL with A51T, Q100A, I106L
notes: as for B1
B32: VH SEQ ID NO 546 / VL SEQ ID NO 390 (antibody, IgG4, V domains shown)
VH: B1 VH
VL: B1 VL with I29V, H34A, Q42E
notes: as for B1

The Kd is the equilibrium constant for the complex coming apart.

Changes are numbered by the printed parent chain. Numbers in names are those of the source.

In the assay the target is T1, recombinant human activated Factor VII (FVIIa) (human, UniProt P08709 61-212; P08709 213-466, ten glutamate residues of the Gla domain may be gamma-carboxylated).
T1 construct: chains tethered by a disulfide bond; also called Factor VIIa; rFVIIa
T1 sequence 1: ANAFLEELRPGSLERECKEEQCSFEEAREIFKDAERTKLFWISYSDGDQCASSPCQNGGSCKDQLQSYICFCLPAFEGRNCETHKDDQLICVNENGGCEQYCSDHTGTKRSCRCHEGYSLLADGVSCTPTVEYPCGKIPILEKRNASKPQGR
T1 sequence 2: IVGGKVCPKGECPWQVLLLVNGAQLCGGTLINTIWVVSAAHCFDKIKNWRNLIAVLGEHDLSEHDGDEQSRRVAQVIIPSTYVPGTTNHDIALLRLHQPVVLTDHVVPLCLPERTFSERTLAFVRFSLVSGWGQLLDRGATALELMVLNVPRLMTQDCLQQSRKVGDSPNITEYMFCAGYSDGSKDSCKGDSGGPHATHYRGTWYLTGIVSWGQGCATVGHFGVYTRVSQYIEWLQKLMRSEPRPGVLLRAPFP
Kind of assay: BLI (Fortebio). Background: In BLI a coated tip is dipped into the sample, and binding shifts an interference pattern.
In the case of B1, the Kd amounted to 1.1 nM.
For B2, the Kd was 8 nM.
As for B3, the Kd came out at 1.2 nM.
For B4 the value was 0.96 nM; for B5, 16 nM.
In the case of B6, the Kd turned out to be 24 nM.
For the molecule B7, the Kd turned out to be 6.8 nM.
In the case of B8, the dissociation constant Kd is 20 nM.
Turning to B9, the Kd was 21 nM.
On to B10, for which the Kd stood at 23 nM.
Regarding B11, the Kd was found to be 5.7 nM.
On to B12, for which the equilibrium dissociation constant (Kd) came out at 10 nM.
B13: the Kd turned out to be 1.2 nM.
For B14 the value was 8.1 nM.
Turning to B15, the Kd is 14 nM.
For B16 the value was 6.7 nM; for B17, 1.1 nM; for B18, 1.1 nM.
Consider B19, for which the Kd turned out to be 15 nM.
For the molecule B20, the Kd stood at 0.99 nM.
On to B21, for which the Kd was 19 nM.
On to B22, for which the Kd turned out to be 2 nM.
On to B23, for which the dissociation constant (Kd) is 11 nM.
With B24, the equilibrium dissociation constant (Kd) was 19 nM.
Regarding B25, the Kd came to 18 nM.
As for B26, the Kd amounted to 1.2 nM.
As to B27, the equilibrium dissociation constant (Kd) was 1.3 nM.
On to B28, for which the Kd amounted to 7.1 nM.
Turning to B29, the Kd was found to be 1.1 nM.
Consider B30, for which the Kd was 1.1 nM.
Take B31: the dissociation constant (Kd) worked out at 19 nM.
For B32, the Kd turned out to be 7 nM.
